The values below come from patent US20190002588A1 (NATIONAL UNIVERSITY CORPORATION CHIBA UNIVERSITY, published 2019).

The target of assay [1] is T1, human Myl9-His (human, UniProt P24844 2-172, limits assumed).
T1 construct: Made in E. coli; the GST tag was cleaved with PreScission Protease
T1 sequence: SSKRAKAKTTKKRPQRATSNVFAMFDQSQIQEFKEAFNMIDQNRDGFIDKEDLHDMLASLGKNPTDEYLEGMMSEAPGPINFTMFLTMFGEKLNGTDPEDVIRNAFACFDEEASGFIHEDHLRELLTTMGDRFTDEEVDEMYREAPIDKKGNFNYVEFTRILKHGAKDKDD
Kind of assay: ELISA, human Myl9-His coated, anti-human IgG-HRP. As for the experimental part:
The binding ability against human Myl9 was evaluated following the steps below by ELISA. Human Myl3-His and human Myl9-His were coated onto the wells of a 96-well plate (Nunc). After an overnight incubation at 4° C., the wells were blocked at room temperature for one hour with 1× Block Ace (DS Pharma Biomedical Co., Ltd.). After washing three times with 0.02% Tween 20/PBS, seven serial dilutions by six folds of the chimeric and humanized antibodies were made from a concentration of 10 μg/mL and added to the wells. After incubation at room temperature for one hour and washing three times, horseradish peroxidase-labeled anti-human IgG antibody (Jackson ImmunoResearch Laboratories) was added, and this was incubated at room temperature for one hour. After washing 5 times, TMBZ (3,3′,5,5′-tetramethylbenzidine) solution was added to the wells, and this was incubated for 5-20 minutes at room temperature. An equal amount of reaction quenching solution (2N H₂SO₄) was added to the wells, and absorbance at 450 nm was read with a microplate reader (PerkinElmer).
(An ELISA detects its analyte on a solid surface through an enzyme-linked reagent.)

Assay [2] concerns the target T2, human Myl3-His (human, UniProt P08590 2-195, limits assumed).
T2 construct: Made in E. coli; the GST tag was cleaved with PreScission Protease
The experiment in a line: ELISA at 0.01, 0.1 and 1 µg/mL, human Myl3-His coated, anti-human IgG-HRP. As for the experimental part:
(§1) The binding ability of chimeric and humanized antibodies prepared from Antibody A against human Myl12a and Myl12b was evaluated following the steps below by ELISA. Human Myl3-His, human Myl9-His, human Myl12a-His and human Myl12b-His were coated onto the wells of a 96-well plate (Nunc), respectively. After an overnight incubation at 4° C., the wells were blocked at room temperature for one hour with 1× Block Ace (DS Pharma Biomedical Co., Ltd.). After washing three times with 0.02% Tween 20/PBS, the chimeric and humanized antibodies were diluted at the concentration of 0.01, 0.1 and 1 μg/mL, respectively and added to the wells. After incubation at room temperature for one hour and washing three times, horseradish peroxidase-labeled anti-human IgG antibody (Jackson ImmunoResearch Laboratories) was added, and this was incubated at room temperature for one hour. After washing 5 times, TMBZ (3,3′,5,5′-tetramethylbenzidine) solution was added to the wells, and this was incubated for 5-20 minutes at room temperature. An equal amount of reaction quenching solution (2N H₂SO₄) was added to the wells, and absorbance at 450 nm was read with a microplate reader (Thermo Scientific).

Assay [3] concerns the target T3, human Myl12a-His (human, UniProt P19105 1-171).
T3 construct: Made in E. coli; GST tag cleaved with PreScission Protease; DTT-treated monomer
T3 sequence: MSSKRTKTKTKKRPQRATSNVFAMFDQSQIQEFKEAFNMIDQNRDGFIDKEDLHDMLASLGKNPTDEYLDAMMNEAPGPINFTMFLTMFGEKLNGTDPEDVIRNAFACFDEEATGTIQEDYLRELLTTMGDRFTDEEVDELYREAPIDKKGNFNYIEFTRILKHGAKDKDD
Kind of assay: ELISA, human Myl12a-His coated, anti-human IgG-HRP. As for the experimental part: as §1

The target in assay [4] is T4, human Myl12b-His (human, UniProt O14950 1-172).
T4 construct: Made in E. coli; GST tag cleaved with PreScission Protease; DTT-treated monomer
T4 sequence: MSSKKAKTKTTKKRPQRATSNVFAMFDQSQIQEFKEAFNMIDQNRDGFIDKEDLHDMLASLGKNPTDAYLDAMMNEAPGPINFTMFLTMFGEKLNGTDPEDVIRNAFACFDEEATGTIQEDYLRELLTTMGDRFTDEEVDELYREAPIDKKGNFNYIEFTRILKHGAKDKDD
The experiment in a line: ELISA, human Myl12b-His coated, anti-human IgG-HRP. As for the experimental part: as §1

Assay [5] concerns the target T5, glutathione-S-transferase (GST)-His-mouse Myl9 (mouse, UniProt Q9CQ19 2-172).
T5 construct: The order of the pieces follows the printed name; not shown: glutathione-S-transferase tag of the pET42b vector
T5 sequence: T1 sequence with S74N
The experiment in a line: ELISA, GST-His-mouse Myl9 coated, anti-Flag-HRP. As for the experimental part: Next, ELISA was performed in order to analyze the presence or absence of association between mouse Myl9 and mouse CD69 (FIGS. 3A and 3B). Specifically, GST-His-mouse Myl3 protein and GST-His-mouse Myl9 protein were added at a concentration of 5 μg/mL, and this was incubated overnight at 4° C. to immobilize them onan ELISA plate. On the next day, Block Ace (Sumitomo Dainippon Pharma Co., Ltd.) was employed to allow blocking at […] temperature for one hour, and then this was washed three times with a wash buffer (50 mM HEPES (pH 6.5), 150 mM NaCl, and 0.02% Tween 20). Different concentration of 3× Flag mouse CD69 EC protein was added to each well, and this was reacted at room temperature for one and a half hours. In FIG. 3B, 3× Flag mouse CD69 EC protein in which the N-linked sugar chain was cleaved with PNGase F (NEB) was employed. The cleaving treatment of the N-linked sugar chain was performed by employing 1,000 U of PNGase F for 4 μg of 3× Flag mouse CD69 EC protein. After washing three times with the wash buffer, HRP-labeled anti-Flag (M2) antibody (Sigma) was added, this was reacted at room temperature for one hour, and then washed five times with the wash buffer. TMB solution (BIO-RAD) was used as the coloring substrate, and the reaction was quenched with 1N H₂SO₄. SpectraMAX Paradigm (Molecular Device) was employed to measure the value at 450 nm.

Positions count from the first letter of the chain named. Numbers in names are those of the source.

T2 sequence (P08590 2-195 limits assumed): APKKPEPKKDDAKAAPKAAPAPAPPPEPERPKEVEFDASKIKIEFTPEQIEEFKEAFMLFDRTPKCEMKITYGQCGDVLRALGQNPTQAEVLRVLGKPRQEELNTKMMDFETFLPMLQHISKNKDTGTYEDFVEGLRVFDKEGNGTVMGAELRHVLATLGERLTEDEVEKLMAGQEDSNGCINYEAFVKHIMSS

B1: Humanized antibody No. 112 (antibody, human IgG2, kappa, V domains shown)
VH: QVQLVQSGAEVKKPGSSVKVSCKASGGTFSDYEMHWVRQAPGQGLEWMGAIDPETGGTAYNQKFKGRVTITADKSTSTAYMELSSLRSEDTAVYYCADYDYDGFAYWGQGTLVTVSS
VL: DIVMTQSPLSLSITPGEQASISCRSSQSLVHSNGNTYLHWYLQKPGQSPQLLISKVSNRFSGVPDRFSGSGSGTDFTLKISRVEAEDVGVYFCSQNTHVPPLTFGGGTKVEIKR
notes: human IgG2 (V234A, G237A, C-terminal Lys deleted) / kappa; Expi293F, Protein A purified; also called HK1-5/L1-5
Regarding B1, the binding result in assay [1] is on record as “binds”; in assay [2] it was “no binding (tested: 1 µg/mL)”; in assay [3] it was “binds”; in assay [4], “binds”.

B2: Humanized antibody No. 116 (antibody, human IgG2, kappa, V domains shown)
VH: B1 VH with S16A, G27Y, S30T, I70M, K74T
VL: B1 VL
notes: human IgG2 (V234A, G237A, C-terminal Lys deleted) / kappa; Expi293F, Protein A purified; also called HK2-5/L1-5
As to B2, the binding result is recorded as “binds” in assay [1], “no binding (tested: 1 µg/mL)” in assay [2], “binds” in assay [3] and “binds” in assay [4].

B3: Humanized antibody No. 114 (antibody, human IgG2, kappa, V domains shown)
VH: B1 VH with V68A, S84R
VL: B1 VL
notes: human IgG2 (V234A, G237A, C-terminal Lys deleted) / kappa; Expi293F, Protein A purified; also called HK1-4/L1-5
With B3, the binding result in assay [1] was “binds”; in assay [2] it was “no binding (tested: 1 µg/mL)”; in assay [3] it was “binds”; in assay [4], “binds”.

B4: Humanized antibody No. 115 (antibody, human IgG2, kappa, V domains shown)
VH: B1 VH with G27Y, M48I, V68A, S84R, A97T
VL: B1 VL
notes: human IgG2 (V234A, G237A, C-terminal Lys deleted) / kappa; Expi293F, Protein A purified; also called HK1-A/L1-5
Take B4: the binding result in assay [1] is given as “binds”; in assay [2], “no binding (tested: 1 µg/mL)”; in assay [3], “binds”; in assay [4] it was “binds”.

B5: 3× Flag-mouse CD69 EC (with sugar chain) (receptor, not shown: small tags and cut ends)
chain: NVGKYNCPGLYEKLESSDHHVATCKNEWISYKRTCYFFSTTTKSWALAQRSCSEDAATLAVIDSEKDMTFLKRYSGELEHWIGLKNEANQTWKWANGKEFNSWFNLTGSGRCVSVNHKNVTAVDCEANFHWVCSKPSR
modifications: N-linked sugar chains present (made in Expi293F cells, not PNGase F treated)
notes: Secreted from Expi293F cells and purified on Anti-Flag M2 gel; also called 3× Flag mouse CD69 EC protein; mouse CD69 extracellular region protein
Regarding B5, in assay [5], the binding result is on record as “binds”.

B6: PNGase F-treated 3× Flag-mouse CD69 EC (without sugar chain) (receptor, not shown: small tags and cut ends)
chain: B5 chain
modifications: N-linked sugar chain cleaved with PNGase F
notes: also called 3× Flag-mouse CD69 EC subjected to sugar chain cleaving treatment; mouse CD69 extracellular region protein
Consider B6, for which the binding result in assay [5] is “binds”.
